Experiments:
[1] = target: cynomolgus BTN3A as expressed on cynomolgus PBMCs (cynomolgus); test: flow cytometry on cynomolgus PBMCs
[2] = target: human BTN3A as expressed on human cells (PBMCs, Daudi Burkitt's lymphoma cells, AML cells, monocytes) (human) (UniProt O00481); test: flow cytometry on human PBMCs
[3] = target: human BTN3A as expressed on human cells (PBMCs, Daudi Burkitt's lymphoma cells, AML cells, monocytes) (human) (UniProt O00481); test: cell-based or functional assay
[4] = target: human BTN3A1 antigen (Sino Biological cat. no. 15973-H08H) (human) (UniProt O00481); test: SPR, Biacore T200 multi-cycle kinetics; antibody captured on Protein A, BTN3A1 as analyte
[5] = target: human BTN3A as expressed on human cells (PBMCs, Daudi Burkitt's lymphoma cells, AML cells, monocytes) (human) (UniProt O00481); test: flow cytometry on Daudi Burkitt's lymphoma cells

Sequence of human BTN3A1 antigen (Sino Biological cat. no. 15973-H08H) (human) (O00481 30-254 limits assumed): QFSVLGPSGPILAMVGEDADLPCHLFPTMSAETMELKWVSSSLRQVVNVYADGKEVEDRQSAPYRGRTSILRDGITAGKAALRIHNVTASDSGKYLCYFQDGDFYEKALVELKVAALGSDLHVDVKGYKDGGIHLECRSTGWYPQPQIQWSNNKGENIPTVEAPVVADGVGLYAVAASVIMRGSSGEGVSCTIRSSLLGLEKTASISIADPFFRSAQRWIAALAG

mAb 20.1, parent murine antibody
EC50 [1]: 4.06 µg/mL | EC50 [2]: 3.02 µg/mL | Functional assay (AML resistant) (γδT cell-based, EC50, µg/mL) [3]: 0.18 µg/mL | Functional assay (AML sensitive) (γδT cell-based, EC50, µg/mL) [3]: 0.05 µg/mL | Functional assay (Daudi) (γδT cell-based, EC50, µg/mL) [3]: 0.02 µg/mL | Vγ9Vδ2 T cell degranulation with PBMCs from C. burnetii patients, 20.1 at 10 µg/ml [3]: 24.1% | Vγ9Vδ2 T cell degranulation with PBMCs from healthy donors, 20.1 at 10 µg/ml [3]: 3.24% | Vγ9Vδ2 T cell degranulation, Mean % CD107+ cells, monocytes infected with C. burnetii Guiana, 20.1 at 10 µg/ml (isotype 37.23) (% CD107+ cells) [3]: 71.5 | Vγ9Vδ2 T cell degranulation, Mean % CD107+ cells, monocytes infected with C. burnetii NM1, 20.1 at 10 µg/ml (isotype 42.1) (% CD107+ cells) [3]: 67.2 | Vγ9Vδ2 T cell degranulation, Mean % CD107+ cells, non stimulated monocytes, 20.1 at 10 µg/ml (isotype 8.59) (% CD107+ cells) [3]: 45.8 | Kd [4]: 0.234 nM | EC50 [5]: 1.19 µg/mL

From US20250129165A1
